Results published in patent US11466066B2, “Variants of human BMP7 protein” (ELI LILLY AND COMPANY, priority 2017, dated 2022).
Positions count from the first letter of the chain named. In names and notes the source's numbering stands. Marks after values point to notes of the source that are not given here.

Experiments:
Format in all cases: in vivo
[1] = system: rat surgical fracture model; test: Bone healing model (cortical defect); settings: day 35; for BMC: mean ± SEM; for % Increase From Vehicle Control: BMC
Excerpt: The effect of wild type human mature BMP7 and variants thereof may be evaluated on bone regeneration and repair or bone healing in a rat surgical fracture model. Animals may be ovariectomized at 6 months of age and allowed to lose bone for two months before fracture surgery. Cortical defect surgery may be performed essentially as previously described (Komatsu, et al., Endocrinology, 150:1570-1579, 2009). Briefly, the procedure involves incising the skin over the lateral femoral aspect and blunt dissection of the quadriceps to expose the distal femoral diaphysis. Cortical defects may be then generated through the anterior and posterior cortexes using a Dremel tool (Robert Bosch Tool Corp, Gerlingen, Germany) equipped with a 2 mm orthopedic drill bit (Zimmer Inc, Warsaw, Ind.). The muscles may be subsequently repositioned, and the skin may be closed with tissue adhesive. Groups of animals may be treated with various amounts of wild type human mature BMP7 or variants thereof prepared in sodium citrate buffer pH 3.0 and adsorbed to Helistat type-1 collagen sponges in a volume of 50 μl. The treatments may be administered locally at the site of defect during surgery and treated for 35 days. A control group may receive the vehicle containing the same constituents in collagen sponge without the therapeutic proteins. In vivo fracture repair and bone mineral content (BMC) may be evaluated by quantitative computed tomography (QCT) using a GE Locus Ultra CT scanner (GE Healthcare, London, Ontario, Canada) as described previously (Komatsu et al., 2008).

[2] = system: female CB17SC-M SCID mice; test: Ectopic bone formation model; settings: 3 μg/100 μl subcutaneous; CT scan on Day 13
Experimental: Ectopic bone formation (EBF) may be measured in female CB17SC-M SCID mice upon subcutaneous administration of certain human BMP7 protein variants of the present invention compared to wild type human mature BMP7.
Briefly described, the mice may be anesthetized with 3% isoflurane and are injected with 3 μg/100 μl of the human BMP7 protein variant, wild type human mature BMP7 protein or a vehicle control on the back left flank. The back right flank of each mouse may serve as a control (no injection). Vehicle (pH 4.5): 0.5% Sucrose, 2.5% Glycine, 5 mM L-Glutamic Acid, 5 mM NaCl, 0.01% polysorbate 80, and, 0.1% BSA.
EBF may be measured by a CT scan on Day 13 after injection of the human BMP7 protein variant or wild type human mature BMP7 protein.

[3] = system: monosodium iodoacetate (MIA)-induced rat model of OA pain; test: MIA rat model of osteoarthritic pain
Experimental: The effect of human mature BMP7 protein variant F9 (SEQ ID NO: 8) may be evaluated in the monosodium iodoacetate (MIA)-induced rat model of OA pain (Bove, et. al., Osteoarthritis and Cartilage, 2003, 11: 821-830).
Briefly stated, male Lewis rats aged 7-8 weeks at the time of MIA injection may be used for this study. For induction of osteoarthritis, the rats may be anesthesized with isoflurane and given a single intra-articular injection of 0.3 mg/50 μl MIA through the infrapatellar ligament of the right knee. The left contralateral control knee may be injected with 50 μl sterile saline. The animals are treated with wild type human mature BMP7 protein at a dose of 1.0 μg/knee and human mature BMP7 protein variant F9 (SEQ ID NO: 8) at 0.175 μg and 0.7 μg/knee via intra-articular injections on day 9 and 14 post-MIA.
Pain measurements may be made by incapacitance testing on days 17, 24, 31, 38, 45, 52, 58, and 66 post-MIA injection using an incapacitance tester (Columbus Instruments International, Columbus, Ohio). Changes in hind paw weight distribution between the osteoarthritic (right) and contralateral control (left) limb may be utilized as an index of joint discomfort (measure of pain) in the osteoarthritic knee. Results may be presented as the difference in weight bearing between the contralateral control (left) and the osteoarthritic (right).

[4] = system: meniscal tear (MT) induced rat model of cartilage degeneration; test: Meniscal tear rat model of cartilage degeneration
Excerpt: The effect of human mature BMP7 protein variant (SEQ ID NO: 8) may be evaluated using an osteoarthritic (OA) pain in the meniscal tear (MT) induced rat model of cartilage degeneration. Male Lewis rats (approximately 25 weeks of age) may be used for such a study. Briefly described, rats may be anesthetized with 3% isoflurane prior to surgery. The right knee may be flexed and a transverse medial incision is made along the proximal antero-medial aspect of the tibia exposing the medial […] ligament. The […] ligament and the joint capsule may be incised simultaneously freeing the tibial attachments of the medial meniscus. Approximately 3 mm of the meniscus may be freed from its attachment to the margin of the tibial plateau and the meniscus may be transected to simulate a complete tear. The incision may be closed with surgical glue.
The animals may be treated with wild type human mature BMP7 at a dose of 350 ng/knee or human mature BMP7 protein variant F9 (SEQ ID NO: 8) at two doses of 49 ng or 245 ng/knee in 50 μl phosphate buffered saline (PBS), pH 7.4. The treatment may be initiated 3 weeks after MT surgery and continued for […]. Animals may be administered weekly intra-articular injections of wild type human mature BMP7 or human mature BMP7 protein variant F9 (SEQ ID NO: 8) or vehicle at various doses for 5 weeks into the operated knee. Pain measurements may be made by incapacitance testing on days 18 (baseline), 25, 31, 42 and 53 post MT surgery using an incapacitance tester (Columbus Instruments International, Columbus, Ohio). Changes in hind paw weight distribution between the osteoarthritic (right) and contralateral control (left) limb may be utilized as an index of joint discomfort (measure of pain) in the osteoarthritic knee. Results may be presented as the difference in weight bearing between the contralateral control (left) and the osteoarthritic (right).

[5] = 16.5 μg on collagen sponge at defect site

B1: Human mature BMP7 protein variant F9 (SEQ ID NO: 8): homodimer wherein each monomeric subunit has SEQ ID NO: 8 (Y65G/I86L/F93V/N110G/Y128W), disulfide linked (protein)
chain: STGSKQRSQNRSKTPKNQEALRMANVAENSSSDQRQACKKHELYVSFRDLGWQDWIIAPEGYAAGYCEGECAFPLNSYMNATNHALVQTLVHVINPETVPKPCCAPTQLGAISVLYFDDSSNVILKKWRNMVVRACGCH
modifications: homodimer, disulfide linked
[1]; 2.0 μg on collagen sponge at defect site
  BMC: 16.19 ± 1.09 mg
[1]; [5]
  BMC: 18.13 ± 2.29^a mg
[1]; 16.5 μg
  cortical area: significant increase
  % Increase From Vehicle Control: 128%
[1]; 2.0 μg
  % Increase From Vehicle Control: 114%
[2]
  Ectopic Bone Formation Volume: 7 mm^3
[3]; 0.175 μg/knee intra-articular day 9 and 14, Day 17 post-MIA
  Difference in hind paw weight bearing: 23.29 ± 1.31 g
[3]; 0.175 μg/knee, Day 24
  Difference in hind paw weight bearing: 24.32 ± 2.97 g
[3]; 0.175 μg/knee, Day 31
  Difference in hind paw weight bearing: 21.87 ± 2.14 g
[3]; 0.175 μg/knee, Day 38
  Difference in hind paw weight bearing: 20.82 ± 1.03^b g
[3]; 0.175 μg/knee, Day 45
  Difference in hind paw weight bearing: 19.44 ± 0.80 g
[3]; 0.175 μg/knee, Day 52
  Difference in hind paw weight bearing: 19.35 ± 0.77 ^b g
[3]; 0.175 μg/knee, Day 58
  Difference in hind paw weight bearing: 17.42 ± 3.16^b g
[3]; 0.175 μg/knee, Day 66
  Difference in hind paw weight bearing: 15.00 ± 1.84^b g
[3]; 0.7 μg/knee intra-articular day 9 and 14, Day 17 post-MIA
  Difference in hind paw weight bearing: 36.75 ± 6.45^b g
[3]; 0.7 μg/knee, Day 24
  Difference in hind paw weight bearing: 29.78 ± 8.39 g
[3]; 0.7 μg/knee, Day 31
  Difference in hind paw weight bearing: 26.62 ± 6.07 g
[3]; 0.7 μg/knee, Day 38
  Difference in hind paw weight bearing: 23.63 ± 0.90 g
[3]; 0.7 μg/knee, Day 45
  Difference in hind paw weight bearing: 21.75 ± 4.34 g
[3]; 0.7 μg/knee, Day 52
  Difference in hind paw weight bearing: 20.51 ± 3.03 g
[3]; 0.7 μg/knee, Day 58
  Difference in hind paw weight bearing: 16.72 ± 0.79^b g
[3]; 0.7 μg/knee, Day 66
  Difference in hind paw weight bearing: 13.06 ± 1.78^b g
[4]; Treatment C, 49 ng/knee weekly intra-articular, Baseline (day 18 post MT surgery)
  Difference in hind paw weight bearing: 52.48 ± 2.11 g
[4]; Treatment C, 49 ng, Day 25
  Difference in hind paw weight bearing: 49.96 ± 0.66 g
[4]; Treatment C, 49 ng, Day 31
  Difference in hind paw weight bearing: 49.52 ± 1.10^b g
[4]; Treatment C, 49 ng, Day 42
  Difference in hind paw weight bearing: 44.8 ± 3.04^b g
[4]; Treatment C, 49 ng, Day 53
  Difference in hind paw weight bearing: 45.70 ± 2.77 g
[4]; Treatment D, 245 ng/knee weekly intra-articular, Baseline (day 18 post MT surgery)
  Difference in hind paw weight bearing: 52.02 ± 2.19 g
[4]; Treatment D, 245 ng, Day 25
  Difference in hind paw weight bearing: 49.77 ± 1.00 g
[4]; Treatment D, 245 ng, Day 31
  Difference in hind paw weight bearing: 49.54 ± 2.77^b g
[4]; Treatment D, 245 ng, Day 42
  Difference in hind paw weight bearing: 42.37 ± 1.28^b g
[4]; Treatment D, 245 ng, Day 53
  Difference in hind paw weight bearing: 38.68 ± 1.68^b g

B2: Wild type human mature BMP7 (SEQ ID NO: 2): dimer of two glycosylated, 139 amino acid disulfide-linked proteins of about 35 kDa, SEQ ID NO: 2 (protein, listed as Homo sapiens)
chain: B1 chain with G65Y, L86I, V93F, G110N, W128Y
modifications: disulfide-linked glycosylated homodimer
[1]; [5]
  BMC: 16.25 ± 1.60 mg
[1]; 16.5 μg
  % Increase From Vehicle Control: 115%
[2]
  Ectopic Bone Formation Volume: 78 mm^3
[3]; 1.0 μg/knee intra-articular day 9 and 14, Day 17 post-MIA
  Difference in hind paw weight bearing: 27.52 ± 2.81 g
[3]; 1.0 μg/knee, Day 24
  Difference in hind paw weight bearing: 26.05 ± 2.81 g
[3]; 1.0 μg/knee, Day 31
  Difference in hind paw weight bearing: 23.46 ± 1.23 g
[3]; 1.0 μg/knee, Day 38
  Difference in hind paw weight bearing: 22.68 ± 0.61 g
[3]; 1.0 μg/knee, Day 45
  Difference in hind paw weight bearing: 20.95 ± 0.87 g
[3]; 1.0 μg/knee, Day 52
  Difference in hind paw weight bearing: 20.37 ± 0.71 g
[3]; 1.0 μg/knee, Day 58
  Difference in hind paw weight bearing: 17.66 ± 1.79^b g
[3]; 1.0 μg/knee, Day 66
  Difference in hind paw weight bearing: 17.59 ± 2.68^b g
[4]; Treatment B, 350 ng/knee weekly intra-articular, Baseline (day 18 post MT surgery)
  Difference in hind paw weight bearing: 52.33 ± 2.45 g
[4]; Treatment B, 350 ng, Day 25
  Difference in hind paw weight bearing: 50.76 ± 1.09 g
[4]; Treatment B, 350 ng, Day 31
  Difference in hind paw weight bearing: 49.97 ± 1.10 g
[4]; Treatment B, 350 ng, Day 42
  Difference in hind paw weight bearing: 46.81 ± 1.34^b g
[4]; Treatment B, 350 ng, Day 53
  Difference in hind paw weight bearing: 47.77 ± 1.78 g
